Data: patent publication US20240336907A1, “NOVEL ENDO-ß-N-ACETYLGLUCOSAMINIDASE” (priority 2020, published 2024)

Legend:
Assay type in all cases: biochemical
(Fucα1,6)GlcNAc-mAb2 [1] = test: Transglycosylation activity with SGP as donor, in combination with Endo-M N175Q; conditions: donor SGP (50 eq.), Endo-M N175Q 2.5 mU, Endo-Si enzyme 10 μg, 23° C., pH 7.5
Experimental: Transglycosylation activity was evaluated as follows. A 50 mM (sodium) phosphate buffer (pH 7.5) solution (17 μL) containing (Fucα1,6)GlcNAc-mAb2 (0.5 mg), SGP (0.485 mg (50 eq.)), Endo-M N175Q (manufactured by Tokyo Kasei Kogyo Co., Ltd.) (2.5 mU) and each of various Endo-Si mutant enzymes (10 μg), was prepared and incubated at 23° C. A sample was taken from each of the reaction solutions at 2, 4, 6, 24, and 48 hours after initiation of the reaction and analyzed for protein by a fully automated electrophoresis system as mentioned above. In the chromatogram obtained, an unreacted product and a transglycosylated molecule, mAb2-(SG)2 are confirmed as discrete peaks. The transglycosylation rates were obtained based on the peak area ratio between the unreacted product and the transglycosylated molecule in accordance with the following expression.
Similarly, transglycosylation rates of individual Endo-Si mutant enzymes at each time period of a reaction were calculated (Table 6).

mAb1 = test: Evaluation of reaction pH for hydrolysis of mAb1 sugar chain
Experimental: The hydrolysis rates of a sugar chain with Endo-Si and EndoS at individual pH values were measured as follows. A 50 mM citric acid-sodium phosphate buffer (pH 5.0 or 5.5) solution, sodium phosphate buffer (pH 6.0, 6.5 or 7.0) solution or Tris-HCl buffer (pH 7.5, 8.0, 8.5 or 9.0) solution (50 μL for each) containing 0.1 mg of mAb1, and 10 ng of Endo-Si WT or EndoS WT, was prepared and incubated at 37° C. Each of the reaction solutions at a half hour after initiation of reaction was sampled and the hydrolysis rate of a sugar chain was calculated in accordance with the aforementioned method.

(Fucα1,6)GlcNAc-mAb2 [2] = test: Transglycosylation activity with sugar chain oxazoline [N3-PEG(3)]-MSG1(9)-Ox as donor; conditions: donor [N3-PEG(3)]-MSG1(9)-Ox (8 eq.), enzyme 1.25 μg, 28° C., pH 7.5
Experimental: Transglycosylation activity was evaluated as follows. […] A sample was taken from each of the reaction solutions at 1, 2, 4, 6, and 24 hours after initiation of the reaction and analyzed for protein by a fully automated electrophoresis system as mentioned above. In the chromatogram obtained, an unreacted product and transglycosylated molecule, mAb2-(MSG1-N3)2 were confirmed as discrete peaks. The transglycosylation rate was calculated based on the peak-area ratio between the unreacted product and the transglycosylated molecule in accordance with the following expression.
Transglycosylation rate (%)=[[peak area of mAb2-(MSG1-N3)2-derived H chain]/{[peak area of (Fucα1,6)GlcNAc-mAb2-derived H chain]+[peak area of mAb2-(MSG1-N3)2-derived H chain]}]×100
Similarly, the transglycosylation rates of individual Endo-Si mutant enzymes at each time period for a reaction were calculated (Table 5).

[3] = tested on: trastuzumab (mAb1) N297-linked sugar chain; test: Hydrolysis activity on antibody sugar chain (sugar chain hydrolysis rate, fully automated electrophoresis); conditions: 0.5 hours after initiation of the reaction; 0.1 mg mAb1, 10 ng enzyme, 37° C., pH 7.5
Experimental: The enzyme obtained in Example 2 was measured for hydrolysis activity by the following method. At this time, EndoS was used as a comparative subject.
In sterile water (5 mL), mAb1 (60 mg) was dissolved. The solution was replaced with 50 mM Tris-HCl buffer (pH 7.5) while concentrating the solution by Vivaspin 20 (30,000 MWCO, PES, manufactured by Sartorius).
A reaction solution containing the mAb1 (0.1 mg) and 10 ng of the enzyme (total volume 50 μL) was prepared and incubated at 37° C. Each of the reaction solutions at 0.5, 1, and 2 hours after initiation of the reaction was sampled and analyzed for protein by a fully automated electrophoresis system as mentioned above. In the chromatogram obtained, an unreacted product and a hydrolysate are confirmed as discrete peaks. From the peak-area ratio between the unreacted product and the hydrolysate, the hydrolysis rate of a sugar chain was calculated in accordance with the following expression.

[4] = Substrate specificity in various 2-AB labeled sugar chains (HPLC); conditions: 37° C., 24 hours
Experimental: The substrate specificity of Endo-Si in various sugar chains were measured as follows. A 50 mM Tris-HCl buffer (pH 7.5) solution (10 μL) containing 5 pmol of each of various sugar chains labeled with 2-AB (manufactured by Agilent Technologies) and 20 μg of Endo-Si WT, was prepared and incubated at 37° C. for 24 hours, and thereafter treated at 95° C. for 5 minutes to terminate the reaction. The reaction solution was subjected to HPLC analysis carried out under the following conditions.
[HPLC Analysis Conditions]
HPLC apparatus: 1200 Infinity LC (manufactured by Agilent Technologies)
Column: ACQUITY UPLC Glycan Amide 130 Å, 1.7 μm, 2.1×150 mm (manufactured by Waters)
Column temperature: 40° C.
Detector: Fluorescence detector RF-20Axs (manufactured by Shimadzu Corporation)
Mobile phase A: H2O+0.1% HCOOH
Mobile phase B: Acetonitrile+0.1% HCOOH
Gradient (mobile phase B %): 90% (0 minute), 40% (25 minutes)
Enzyme activity was calculated based on the peak area ratio between a substrate and a hydrolysate, GlcNAc-2AB. […] Of them, the activity on (specificity to) G0 sugar chain is the highest.

human IgG1-4 = test: Substrate specificity in various antibodies (band shift in electrophoresis); conditions: 10 μg substrate, 1 μg enzyme, 37° C., pH 7.5, two hours
Experimental: The hydrolysis activities of Endo-Si, EndoS and PNGaseF on various antibodies were measured as follows. A 50 mM Tris-HCl buffer (pH 7.5) solution (50 μL) containing each of various substrates (10 μg), and 1 μg Endo-Si WT was prepared and incubated at 37° C. As the substrate, human IgG1-4, IgA, and IgE (all manufactured by Sigma Aldrich) were used. As the controls, 1 μg of EndoS WT and 500 U PNGase F PRIME (manufactured by N-zyme Scientifics) were used. Two hours after initiation of the reaction, a sample was taken from the reaction solution and analyzed for protein by a fully automated electrophoresis system mentioned above.
When a sugar chain is hydrolyzed by addition of an enzyme, the band of a protein shifts to the lower molecular weight side compared to when the enzyme was not added.

B1: Endo-Si WT: endo-β-N-acetylglucosaminidase derived from Streptococcus iniae, amino acid positions 34 to 928 in SEQ ID NO: 2 (protein, listed as Streptococcus iniae)
chain: REELKMPNGLEQSIADVEAKIDALTYLSKNSKDEFKHSMYEIPSNREHKPVSPKQALQNAKKADAQAERLAKMTIPKKEELKALEGPLYGGYFRTWQDKTSDPTETNKVNSFGELPKEVDLAFVFHDYTKDYSLFWEELATKQVPKLNKQGTRVIRTIPWRFLSGADHSDISADKEKFPNTEAGNKALAKAIVDEYVYKYNLDGLDIDIERDSVPKVNDKEDPEALARTVEVFKEIGKLIGANGADKSRLLIMDTTYTAEENPLIKETAQYLNLLLVQVYGFSGENGNYLHHKNILDETSSMEGRWQGYSKYIRPEQYMVGFSFYEEKDFNNRWKDINEEDPSDPHIGEKIQGTRAERYAKWQPKTGGLKGGLFSYAIDRDGVAQPKQKTEHPELDKIVKSEYKVSKALKKLMMTDDQYQPIDQSDFPDKALRESIIKQVGTRRGDLERFKGTLRLDNPEIKDLTGLNKLKRVAKLELINLPKITKIDKDDLPQNLKPLTDNQKSNLEIKGTYDDSKLYKDIPAFDLVISGLSGLESLDISGHQRDTLSGIDASTLPSLKAINISDNHFDLAQGTENRHILDTILATLAKNGASTASFDKQKPKGLYPESYSTAPLHLQVGQGKINVIDDLIFGTRTNQNTLINTENDFEAYKEQTIQGKPFIAPDYLYDNFKVSYKEYSASIVDSTLAETTDKTIDTAKAETYQVTVSNKDGKTVHSVKVIVGDEKPMMVNLAQDAKIIGTDNMTQSAKVFDGQKDQFLLSWNKDSSVIFELKTPGTAKHWRFFDDGKNDSVTLSVFKGDASNFETEKDKAENWVEITKDSRKNDDKVFSSPLEVDNAKYLKVTIKKEAKYIYFNELQILGYPGVVAKKTADDLRPTEADKSDDKSDKNDTEAK
Transglycosylation rate ((Fucα1,6)GlcNAc-mAb2 [1]; 2 h): 1.2%
Transglycosylation rate ((Fucα1,6)GlcNAc-mAb2 [1]; 4 h): 1.1%
Transglycosylation rate ((Fucα1,6)GlcNAc-mAb2 [1]; 6 h): 0.0%
Transglycosylation rate ((Fucα1,6)GlcNAc-mAb2 [1]; 24 h): 0.0%
Transglycosylation rate ((Fucα1,6)GlcNAc-mAb2 [1]; 48 h): 0.0%
hydrolysis activity compared with EndoS (mAb1; at around pH 6.7 or more): higher than that of EndoS
optimum pH for hydrolysis: particularly around (mAb1; mAb1, 37° C., half hour reaction, particularly around (pH 7.2 to 8.0)): ~7.5 pH
Transglycosylation rate ((Fucα1,6)GlcNAc-mAb2 [2]; 1 h): 0.0%
Transglycosylation rate ((Fucα1,6)GlcNAc-mAb2 [2]; 2 h): 0.0%
Transglycosylation rate ((Fucα1,6)GlcNAc-mAb2 [2]; 4 h): 0.0%
Transglycosylation rate ((Fucα1,6)GlcNAc-mAb2 [2]; 6 h): 0.0%
Transglycosylation rate ((Fucα1,6)GlcNAc-mAb2 [2]; 24 h): 0.0%
hydrolysis rate of a sugar chain [3]: 57.4%
Relative activity ([4]; substrate 2-AB G0 (agafacto biantennary), reference regarded as 100%): 100%
Relative activity ([4]; substrate 2-AB G2 (asfato biantennary), activity against G0 sugar chain regarded as 100%): 73.2%
Relative activity ([4]; substrate 2-AB G2F (core-fucosylated biantennary), activity against G0 sugar chain regarded as 100%): 50.1%
Relative activity ([4]; substrate 2-AB G2S2 (a2,6) (sialyl biantennary), activity against G0 sugar chain regarded as 100%): 17.1%
Relative activity ([4]; substrate 2-AB G3 (triantennary), activity against G0 sugar chain regarded as 100%): Not detected
Relative activity ([4]; substrate 2-AB Man3, activity against G0 sugar chain regarded as 100%): 7.2%
Relative activity ([4]; substrate 2-AB Man 5, activity against G0 sugar chain regarded as 100%): 1.9%
Relative activity ([4]; substrate 2-AB Man6, activity against G0 sugar chain regarded as 100%): 6.6%
Relative activity ([4]; substrate 2-AB Man8, activity against G0 sugar chain regarded as 100%): 5.2%
Relative activity ([4]; substrate 2-AB Man9, activity against G0 sugar chain regarded as 100%): 3.3%
hydrolysis activity on the 4 subclasses of IgG (human IgG1-4): exhibited hydrolysis activity
